For orientation: Kd means the concentration at which binding is half-saturated. Low values mean tighter binding, high ones weaker binding.

The results in this text go back to publication doi:10.1101/2023.12.08.570772 (bioRxiv, 2023).

T1: Full length MAGEA4 M161D (human, UniProt P43358 1-317, M161D)
T1 sequence: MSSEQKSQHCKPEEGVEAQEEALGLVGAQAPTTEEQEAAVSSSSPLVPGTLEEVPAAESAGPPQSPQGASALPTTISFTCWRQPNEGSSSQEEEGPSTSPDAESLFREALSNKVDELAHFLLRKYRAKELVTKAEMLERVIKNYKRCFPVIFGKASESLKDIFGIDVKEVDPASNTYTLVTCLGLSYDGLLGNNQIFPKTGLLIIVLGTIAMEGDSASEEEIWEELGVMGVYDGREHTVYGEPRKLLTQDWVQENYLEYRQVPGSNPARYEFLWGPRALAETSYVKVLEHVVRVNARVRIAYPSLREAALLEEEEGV

B1: Full length MAGEA4 WT (N-terminal histidine tag) (natural protein)
chain: T1 sequence with D161M

The target of test [1] is B1. The experiment in a line: ITC. Background: In ITC the heat of successive injections is recorded.
Test [2] concerns the target T1, Full length MAGEA4 M161D. Put plainly: ITC.
The target of test [3] is His-tagged full length (FL) wildtype (WT) RAD18 (human, UniProt Q9NS91 1-495). Put plainly: cross-linking.
Chain of His-tagged full length (FL) wildtype (WT) RAD18 (Q9NS91 whole entry): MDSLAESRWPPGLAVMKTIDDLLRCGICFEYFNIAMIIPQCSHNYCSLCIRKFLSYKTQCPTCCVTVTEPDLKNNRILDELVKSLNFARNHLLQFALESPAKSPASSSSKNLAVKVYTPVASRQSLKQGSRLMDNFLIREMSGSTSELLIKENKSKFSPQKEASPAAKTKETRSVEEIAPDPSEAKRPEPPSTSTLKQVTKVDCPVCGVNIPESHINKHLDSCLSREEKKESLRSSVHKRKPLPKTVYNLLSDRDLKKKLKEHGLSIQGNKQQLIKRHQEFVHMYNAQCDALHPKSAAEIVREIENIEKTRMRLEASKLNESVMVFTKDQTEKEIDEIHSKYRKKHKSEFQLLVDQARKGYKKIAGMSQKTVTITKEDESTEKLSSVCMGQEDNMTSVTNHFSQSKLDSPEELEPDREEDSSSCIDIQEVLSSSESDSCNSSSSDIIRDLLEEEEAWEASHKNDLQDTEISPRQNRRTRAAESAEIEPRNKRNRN

Residue numbers refer to the chain shown, from its start.

For the molecule SKYRKKHKSEFQLLVDQARKGYKKIAG [RAD18 R6BD peptide (27 amino acid peptide containing amino acids 340-366 of RAD18)], the Kd in test [1] turned out to be 0.405 µM; in test [2] it was 1.66 µM.
B1: the binding result in test [3] is recorded as “binds”.
